Assay results published in patent US20250152742A1, “COMPOSITIONS AND METHODS FOR NEUROLOGICAL DISEASES” (Trames Bio, Inc., priority 2022, published 2025).

System: engineered chimeric receptor SEQ ID NO: 33 and its mutants (human α7-nAChR ligand binding domain / human GlyRα1 ion pore domain) in Lenti-X 293T cells
Assay: YFP fluorescence quenching anion reporter plate reader assay (percent quench, EC50)
Type: cell-based
Settings: for YFP fluorescence quenching using CNL001 (percent quench): receptor named in row; for YFP fluorescence quenching using Facinicline, 30 nM fac: ligand Facinicline 30 nM; for YFP fluorescence quenching using Facinicline, 300 nM fac: ligand Facinicline 300 nM; for YFP fluorescence quenching using Facinicline, 30 uM fac: ligand Facinicline 30 uM; for YFP fluorescence quenching using TC-6987, 1 uM tc6987: ligand TC-6987 1 uM; for YFP fluorescence quenching using TC-6987, 10 uM tc6987: ligand TC-6987 10 uM; for YFP fluorescence quenching using TC-6987, 500 uM tc6987: ligand TC-6987 500 uM; for YFP fluorescence quenching using Varenicline, 3 nM var: ligand Varenicline 3 nM; for YFP fluorescence quenching using Varenicline, 30 nM var: ligand Varenicline 30 nM; for YFP fluorescence quenching using Varenicline, 300 nM var: ligand Varenicline 300 nM; for YFP fluorescence quenching using Varenicline, 500 nM var: ligand Varenicline 500 nM; for YFP fluorescence quenching using Varenicline, 1 uM var: ligand Varenicline 1 uM
How it was run: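 Lenti-X 293T cells co-expressing an anion-quenchable YFP were transiently transfected with receptor DNA, then ligand was added in NaI-substituted buffer (pH 7.2) after 30 min at 37 °C. Fluorescence was read about 2 min; percent quench = mean of last 10 s over 15 s pre-ligand baseline.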

[1] = 1 nM CNL001, first column so headed
[2] = 1 nM CNL001, second column so headed
[3] = 3 nM brd (TC-5619/Bradanicline)
[4] = 10 nM CNL001, first column so headed
[5] = 10 nM CNL001, second column so headed
[6] = 30 nM brd (TC-5619/Bradanicline)
[7] = 50 nM CNL001, first column so headed
[8] = 50 nM CNL001, second column so headed
[9] = 100 nM CNL001, first column so headed
[10] = 100 nM CNL001, second column so headed
[11] = 300 nM brd (TC-5619/Bradanicline)
[12] = 1 uM CNL001, first column so headed
[13] = 1 uM CNL001, second column so headed

B1: CODA945: engineered receptor: Q139E in SEQ ID NO: 33 (protein)
chain: MRCSPGGVWLALAASLLHVSLQGEFQRKLYKELVKNYNPLERPVANDSQPLTVYFSLSLLQIMDVDEKNQVLTTNIWLQMSWTDHYLQWNVSEYPGVKTVRFPDGQIWKPDILLYNSADERFDATFHTNVLVNSSGHCEYLPPGIFKSSCPMDLKNFPMDVQTCKLKFGSWSYGGWSLDLQMQEADISGYIPNGEWDLVGIPGKRSERFYECCKEPYPDVTFTVTMRRRMGYYLIQMYIPSLLIVILSWISFWINMDAAPARVGLGITTVLTMTTQSSGSRASLPKVSYVKAIDIWMAVCLLFVFSALLEYAAVNFVSRQHKELLRFRRKRRHHKSPMLNLFQEDEAGEGRFNFSAYGMGPACLQAKDGISVKGANNSNTTNPPPAPSKSPEEMRKLFIQRAKKIDKISRIGFPMAFLIFNMFYWIIYKIVRREDVHNQ
modifications: synthetic sequence of chimeric LGIC
- YFP fluorescence quenching using CNL001 (percent quench) [1]: 6.65%
- YFP fluorescence quenching using CNL001 (percent quench) [2]: 13.512%
- YFP fluorescence quenching using TC-5619/Bradanicline (percent quench) [3]: 14.15%
- YFP fluorescence quenching using CNL001 (percent quench) [4]: 78.678%
- YFP fluorescence quenching using CNL001 (percent quench) [5]: 82.723%
- YFP fluorescence quenching using TC-6683 (percent quench) (30 nM TC-6683): −26.47%
- YFP fluorescence quenching using TC-5619/Bradanicline (percent quench) [6]: 78.18%
- YFP fluorescence quenching using CNL001 (percent quench) [7]: 84.91%
- YFP fluorescence quenching using CNL001 (percent quench) [8]: 84.849%
- YFP fluorescence quenching using ABT-126 (percent quench) (50 nM abt (ABT-126)): −8.27%
- YFP fluorescence quenching using CNL001 (percent quench) [9]: 85.046%
- YFP fluorescence quenching using CNL001 (percent quench) [10]: 84.642%
- YFP fluorescence quenching (percent quench) (100 nM CNL002): 60.5%
- YFP fluorescence quenching using ABT-126 (percent quench) (100 nM abt (ABT-126)): 4.76%
- YFP fluorescence quenching using AZD-0328 (percent quench) (100 nM azd0328): −5.79%
- YFP fluorescence quenching using TC-6683 (percent quench) (300 nM TC-6683): −18.62%
- YFP fluorescence quenching using ABT-126 (percent quench) (300 nM abt (ABT-126)): 30.88%
- YFP fluorescence quenching using AZD-0328 (percent quench) (300 nM azd0328): 58.47%
- YFP fluorescence quenching using TC-5619/Bradanicline (percent quench) [11]: 76.8%
- YFP fluorescence quenching using CNL001 (percent quench) [12]: 85.493%
- YFP fluorescence quenching using CNL001 (percent quench) [13]: 86.071%
- YFP fluorescence quenching (percent quench) (1 uM CNL002): 75.41%
- YFP fluorescence quenching using ABT-126 (percent quench) (1 uM abt (ABT-126)): 60.66%
- YFP fluorescence quenching using TC-6683 (percent quench) (3 uM TC-6683): −13.39%
- YFP fluorescence quenching (percent quench) (10 uM ach (acetylcholine)): −1.25%
- YFP fluorescence quenching (percent quench) (30 uM CNL002): 77.46%
- YFP fluorescence quenching using TC-6683 (percent quench) (30 uM TC-6683): −16.6%
- YFP fluorescence quenching using AZD-0328 (percent quench) (30 uM azd0328): 66.57%
- YFP fluorescence quenching using TC-6683 (percent quench) (100 uM TC-6683): −12.89%
- YFP fluorescence quenching (percent quench) (100 uM ach (acetylcholine)): 71.21%
- YFP fluorescence quenching (percent quench) (1 mM ach (acetylcholine)): 71.79%
- YFP fluorescence quenching (percent quench) (3 mM ach (acetylcholine)): 76.04%
- YFP fluorescence quenching using Facinicline, 30 nM fac: −7.16
- YFP fluorescence quenching using Facinicline, 300 nM fac: 71.17
- YFP fluorescence quenching using Facinicline, 30 uM fac: 72.14
- YFP fluorescence quenching using TC-6987, 1 uM tc6987: −0.97
- YFP fluorescence quenching using TC-6987, 10 uM tc6987: 21.53
- YFP fluorescence quenching using TC-6987, 500 uM tc6987: 7.39
- YFP fluorescence quenching using Varenicline, 3 nM var (first column): 8.207
- YFP fluorescence quenching using Varenicline, 3 nM var (second column): 7.835
- YFP fluorescence quenching using Varenicline, 30 nM var (first column): 9.509
- YFP fluorescence quenching using Varenicline, 30 nM var (second column): 10.204
- YFP fluorescence quenching using Varenicline, 300 nM var (first column): 9.818
- YFP fluorescence quenching using Varenicline, 300 nM var (second column): 12.539
- YFP fluorescence quenching using Varenicline, 500 nM var (first column): 16.762
- YFP fluorescence quenching using Varenicline, 500 nM var (second column): 15.21
- YFP fluorescence quenching using Varenicline, 1 uM var (first column): 48.292
- YFP fluorescence quenching using Varenicline, 1 uM var (second column): 54.096

B2: CODA377: engineered receptor: S172D in SEQ ID NO: 33 (protein)
chain: MRCSPGGVWLALAASLLHVSLQGEFQRKLYKELVKNYNPLERPVANDSQPLTVYFSLSLLQIMDVDEKNQVLTTNIWLQMSWTDHYLQWNVSEYPGVKTVRFPDGQIWKPDILLYNSADERFDATFHTNVLVNSSGHCQYLPPGIFKSSCPMDLKNFPMDVQTCKLKFGSWDYGGWSLDLQMQEADISGYIPNGEWDLVGIPGKRSERFYECCKEPYPDVTFTVTMRRRMGYYLIQMYIPSLLIVILSWISFWINMDAAPARVGLGITTVLTMTTQSSGSRASLPKVSYVKAIDIWMAVCLLFVFSALLEYAAVNFVSRQHKELLRFRRKRRHHKSPMLNLFQEDEAGEGRFNFSAYGMGPACLQAKDGISVKGANNSNTTNPPPAPSKSPEEMRKLFIQRAKKIDKISRIGFPMAFLIFNMFYWIIYKIVRREDVHNQ
modifications: synthetic sequence of chimeric LGIC
- YFP fluorescence quenching using CNL001 (percent quench) [1]: 67.544%
- YFP fluorescence quenching using CNL001 (percent quench) [2]: 74.209%
- YFP fluorescence quenching using TC-5619/Bradanicline (percent quench) (1 nM brd (TC-5619/Bradanicline)): 0.77%
- YFP fluorescence quenching using TC-5619/Bradanicline (percent quench) [3]: −4.59%
- YFP fluorescence quenching using CNL001 (percent quench) [4]: 74.346%
- YFP fluorescence quenching using CNL001 (percent quench) [5]: 75.816%
- YFP fluorescence quenching using TC-5619/Bradanicline (percent quench) (10 nM brd (TC-5619/Bradanicline)): 0.06%
- YFP fluorescence quenching using TC-6683 (percent quench) (30 nM TC-6683): −20.23%
- YFP fluorescence quenching using TC-5619/Bradanicline (percent quench) [6]: −10.48%
- YFP fluorescence quenching using CNL001 (percent quench) [7]: 77.068%
- YFP fluorescence quenching using CNL001 (percent quench) [8]: 76.99%
- YFP fluorescence quenching using ABT-126 (percent quench) (50 nM abt (ABT-126)): −1.53%
- YFP fluorescence quenching using CNL001 (percent quench) [9]: 79.352%
- YFP fluorescence quenching using CNL001 (percent quench) [10]: 77.865%
- YFP fluorescence quenching (percent quench) (100 nM CNL002): 59.35%
- YFP fluorescence quenching using ABT-126 (percent quench) (100 nM abt (ABT-126)): 18.18%
- YFP fluorescence quenching using AZD-0328 (percent quench) (100 nM azd0328): 65.04%
- YFP fluorescence quenching using TC-5619/Bradanicline (percent quench) (100 nM brd (TC-5619/Bradanicline)): 0.25%
- YFP fluorescence quenching using TC-6683 (percent quench) (300 nM TC-6683): −13.94%
- YFP fluorescence quenching using ABT-126 (percent quench) (300 nM abt (ABT-126)): 59.15%
- YFP fluorescence quenching using AZD-0328 (percent quench) (300 nM azd0328): 81.73%
- YFP fluorescence quenching using TC-5619/Bradanicline (percent quench) [11]: −10.61%
- YFP fluorescence quenching using CNL001 (percent quench) [12]: 80.272%
- YFP fluorescence quenching using CNL001 (percent quench) [13]: 79.432%
- YFP fluorescence quenching (percent quench) (1 uM CNL002): 79.26%
- YFP fluorescence quenching using ABT-126 (percent quench) (1 uM abt (ABT-126)): 72.28%
- YFP fluorescence quenching using TC-5619/Bradanicline (percent quench) (1 uM brd (TC-5619/Bradanicline)): 3.82%
- YFP fluorescence quenching using TC-6683 (percent quench) (3 uM TC-6683): −14.17%
- YFP fluorescence quenching (percent quench) (10 uM ach (acetylcholine)): −3.19%
- YFP fluorescence quenching (percent quench) (30 uM CNL002): 79.96%
- YFP fluorescence quenching using TC-6683 (percent quench) (30 uM TC-6683): 1.86%
- YFP fluorescence quenching using AZD-0328 (percent quench) (30 uM azd0328): 82.3%
- YFP fluorescence quenching using TC-6683 (percent quench) (100 uM TC-6683): 43.61%
- YFP fluorescence quenching (percent quench) (100 uM ach (acetylcholine)): 0.07%
- YFP fluorescence quenching (percent quench) (1 mM ach (acetylcholine)): 71.7%
- YFP fluorescence quenching (percent quench) (3 mM ach (acetylcholine)): 76.95%
- YFP fluorescence quenching using Facinicline, 30 nM fac: 4.93
- YFP fluorescence quenching using Facinicline, 300 nM fac: 84.13
- YFP fluorescence quenching using Facinicline, 10 uM fac (ligand Facinicline 10 uM): 66.96
- YFP fluorescence quenching using Facinicline, 30 uM fac: 85.29
- YFP fluorescence quenching using TC-6987, 1 uM tc6987: −9.74
- YFP fluorescence quenching using TC-6987, 3 uM tc6987 (ligand TC-6987 3 uM): −14.04
- YFP fluorescence quenching using TC-6987, 5 uM tc6987 (ligand TC-6987 5 uM): −0.95
- YFP fluorescence quenching using TC-6987, 10 uM tc6987: −7.41
- YFP fluorescence quenching using TC-6987, 30 uM tc6987 (ligand TC-6987 30 uM): −16.12
- YFP fluorescence quenching using TC-6987, 50 uM tc6987 (ligand TC-6987 50 uM): −12.79
- YFP fluorescence quenching using TC-6987, 100 uM tc6987 (ligand TC-6987 100 uM): −11.77
- YFP fluorescence quenching using TC-6987, 300 uM tc6987 (ligand TC-6987 300 uM): −19.68
- YFP fluorescence quenching using TC-6987, 500 uM tc6987: −17.02
- YFP fluorescence quenching using Varenicline, 3 nM var (first column): −3.433
- YFP fluorescence quenching using Varenicline, 3 nM var (second column): −5.737
- YFP fluorescence quenching using Varenicline, 30 nM var (first column): −5.319
- YFP fluorescence quenching using Varenicline, 30 nM var (second column): −6.175
- YFP fluorescence quenching using Varenicline, 300 nM var (first column): −4.135
- YFP fluorescence quenching using Varenicline, 300 nM var (second column): −8.614
- YFP fluorescence quenching using Varenicline, 500 nM var (first column): −6.062
- YFP fluorescence quenching using Varenicline, 500 nM var (second column): −6.125
- YFP fluorescence quenching using Varenicline, 1 uM var (first column): −14.134
- YFP fluorescence quenching using Varenicline, 1 uM var (second column): −15.373
